# Test results as given in US20240279307A1 (published 2024).
# Changes are numbered by the printed parent chain.
# T1: HMHA1, wild type (HA-1R; HA-1H-negative, rs1801284 G/G) peptide on HLA-A*02:01 (human)
# T1 peptide: VLRDDLLEA
# T2: HMHA1 (Rho GTPase-activating protein 45), minor histocompatibility antigen HA-1H, R139H polymorphism peptide … (human)
# T2 peptide: VLHDDLLEA
# B1: TCR5 (TCR, V domains shown)
# Valpha: SQQGEEDPQALSIQEGENATMNCSYKTSINNLQWYRQNSGRGLVHLILIRSNEREKHSGRLRVTLDTSKKSSSLLITASRAADTASYFCATNSGNTPLVFGKGTRLSVIA
# Vbeta: DTGVSQDPRHKITKRGQNVTFRCDPISEHNRLYWYRQTLGQGPEFLTYFQNEAQLEKSRLLSDRFSAERPKGSFSTLEIQRTEQGDSAMYLCASSLTTLDEQYVGPGTRLTVT
# B2: TCR10 (TCR, V domains shown)
# Valpha: KNQVEQSPQSLIILEGKNCTLQCNYTVSPFSNLRWYKQDTGRGPVSLTIMTFSENTKSNGRYTATLDADTKQSSLHITASQLSDSASYICVVDSGGGADGLTFGKGTHLIIQP
# Vbeta: B1 Vbeta with L96M, T97L, L99N, D100Y, V104F
# B3: TCR1 (TCR, V domains shown)
# Valpha: SQQGEEDPQALSIQEGENATMNCSYKTSINNLQWYRQNSGRGLVHLILIRSNEREKHSGRLRVTLDTSKKSSSLLITASRAADTASYFCATKRDSGAGSYQLTFGKGTKLSVIP
# Vbeta: DTGVSQDPRHKITKRGQNVTFRCDPISEHNRLYWYRQTLGQGPEFLTYFQNEAQLEKSRLLSDRFSAERPKGSFSTLEIQRTEQGDSAMYLCASSSTGGHNEQFFGPGTRLTVL
# B4: TCR2 (TCR, V domains shown)
# Valpha: KQEVTQIPAALSVPEGENLVLNCSFTDSAIYNLQWFRQDPGKGLTSLLLIQSSQREQTSGRLNASLDKSSGRSTLYIAASQPGDSATYLCAVIGLGGTYKYIFGTGTRLKVLA
# Vbeta: DTGVSQDPRHKITKRGQNVTFRCDPISEHNRLYWYRQTLGQGPEFLTYFQNEAQLEKSRLLSDRFSAERPKGSFSTLEIQRTEQGDSAMYLCASSLVKGEKLFFGSGTQLSVL
# B5: TCR16 (TCR, V domains shown)
# Valpha: KQEVTQIPAALSVPEGENLVLNCSFTDSAIYNLQWFRQDPGKGLTSLLLIQSSQREQTSGRLNASLDKSSGRSTLYIAASQPGDSATYLCAVHLLNDYKLSFGAGTTVTVRA
# Vbeta: B1 Vbeta with T97V, T98V, L99G, D100N, Y103F, V104F, T113L
# Molecular target: T1, HMHA1, wild type (HA-1R; …)
# Assay: killing
row,Binder,binding result
1,B1,no recognition
2,B2,no recognition
3,B3,no recognition
4,B4,no recognition
5,B5,no recognition

# Molecular target: T2, HMHA1 (Rho GTPase-activating protein …)
# Assay: multimer staining
row,Binder,binding result
1,B1,recognises
2,B2,recognises
3,B3,recognises
4,B4,recognises
5,B5,recognises
